Where a chain is given by its changes, count along the chain named.
B1: DVD2788 (bispecific antibody, IgG1)
VH: EVTLRESGPGLVKPTQTLTLTCTLYGFSLSTSDMGVDWIRQPPGKGLEWLAHIWWDDVKRYNPALKSRLTISKDTSKNQVVLKLTSVDPVDTATYYCARTVSSGYIYYAMDYWGQGTLVTVSSGGGGSGGGGSEVQLVQSGAEVKKPGASVKVSCKASGYTFANYGIIWVRQAPGQGLEWMGWINTYTGKPTYAQKFQGRVTMTTDTSTSTAYMELSSLRSEDTAVYYCARKLFTTMDVTDNAMDYWGQGTTVTVSS
VL: DIQMTQSPSSLSASVGDRVTISCRASQDIRNYLNWYQQKPGKAPKLLIFYTSKLHSGVPSRFSGSGSGTDYTLTISSLQPEDIATYYCQQGLTPPLTFGGGTKVEIKRGGSGGGGSGDIQMTQSPSSLSASVGDRVTITCRASQDISQYLNWYQQKPGKAPKLLIYYTSRLQSGVPSRFSGSGSGTDFTLTISSLQPEDFATYFCQQGNTWPPTFGQGTKLEIKR
B2: DVD2783 (bispecific antibody, IgG1)
VH: EVQLVQSGAEVKKPGASVKVSCKASGYTFANYGIIWVRQAPGQGLEWMGWINTYTGKPTYAQKFQGRVTMTTDTSTSTAYMELSSLRSEDTAVYYCARKLFTTMDVTDNAMDYWGQGTTVTVSSGGGGSGGGGSEVTLRESGPGLVKPTQTLTLTCTLYGFSLSTSDMGVDWIRQPPGKGLEWLAHIWWDDVKRYNPALKSRLTISKDTSKNQVVLKLTSVDPVDTATYYCARTVSSGYIYYAMDYWGQGTLVTVSS
VL: DIQMTQSPSSLSASVGDRVTITCRASQDISQYLNWYQQKPGKAPKLLIYYTSRLQSGVPSRFSGSGSGTDFTLTISSLQPEDFATYFCQQGNTWPPTFGQGTKLEIKRGGSGGGGSGDIQMTQSPSSLSASVGDRVTISCRASQDIRNYLNWYQQKPGKAPKLLIFYTSKLHSGVPSRFSGSGSGTDYTLTISSLQPEDIATYYCQQGLTPPLTFGGGTKVEIKR
B3: DVD2789 (bispecific antibody, IgG1)
VH: EVTLRESGPGLVKPTQTLTLTCTLYGFSLSTSDMGVDWIRQPPGKGLEWLAHIWWDDVKRYNPALKSRLTISKDTSKNQVVLKLTSVDPVDTATYYCARTVSSGYIYYAMDYWGQGTLVTVSSASTKGPEVQLVQSGAEVKKPGASVKVSCKASGYTFANYGIIWVRQAPGQGLEWMGWINTYTGKPTYAQKFQGRVTMTTDTSTSTAYMELSSLRSEDTAVYYCARKLFTTMDVTDNAMDYWGQGTTVTVSS
VL: DIQMTQSPSSLSASVGDRVTISCRASQDIRNYLNWYQQKPGKAPKLLIFYTSKLHSGVPSRFSGSGSGTDYTLTISSLQPEDIATYYCQQGLTPPLTFGGGTKVEIKRTVAAPDIQMTQSPSSLSASVGDRVTITCRASQDISQYLNWYQQKPGKAPKLLIYYTSRLQSGVPSRFSGSGSGTDFTLTISSLQPEDFATYFCQQGNTWPPTFGQGTKLEIKR
B4: DVD2688 (bispecific antibody, IgG1)
VH: EVTLRESGPGLVKPTQTLTLTCTLYGFSLSTSDMGVDWIRQPPGKGLEWLAHIWWDDVKRYNPALKSRLTISKDTSKNQVVLKLTSVDPVDTATYYCARTVSSGYIYYAMDYWGQGTLVTVSSGGGGSGGGGSEVQLVESGGGLVQPGGSLRLSCAASGFTFSNYGVTWVRQAPGKGLEWVSMIWADGSTHYASSVKGRFTISRDNSKNTLYLQMNSLRAEDTAVYYCAREWQHGPVAYWGQGTLVTVSS
VL: DIQMTQSPSSLSASVGDRVTISCRASQDIRNYLNWYQQKPGKAPKLLIFYTSKLHSGVPSRFSGSGSGTDYTLTISSLQPEDIATYYCQQGLTPPLTFGGGTKVEIKRGGSGGGGSGDIQMTQSPSSLSASVGDRVTITCRASQLVSSAVAWYQQKPGKAPKLLIYWASARHTGVPSRFSGSGSGTDFTLTISSLQPEDFATYYCQQHYKTPFTFGQGTKLEIKR
B5: DVD2738 (bispecific antibody, IgG1)
VH: B4 VH with T168E, M183G, S194D, S195T, G198S
VL: B4 VL with R141K, A170T, R171L, K210R
B6: DVD2784 (bispecific antibody, IgG1)
VH: EVQLVQSGAEVKKPGASVKVSCKASGYTFANYGIIWVRQAPGQGLEWMGWINTYTGKPTYAQKFQGRVTMTTDTSTSTAYMELSSLRSEDTAVYYCARKLFTTMDVTDNAMDYWGQGTTVTVSSASTKGPEVTLRESGPGLVKPTQTLTLTCTLYGFSLSTSDMGVDWIRQPPGKGLEWLAHIWWDDVKRYNPALKSRLTISKDTSKNQVVLKLTSVDPVDTATYYCARTVSSGYIYYAMDYWGQGTLVTVSS
VL: DIQMTQSPSSLSASVGDRVTITCRASQDISQYLNWYQQKPGKAPKLLIYYTSRLQSGVPSRFSGSGSGTDFTLTISSLQPEDFATYFCQQGNTWPPTFGQGTKLEIKRTVAAPDIQMTQSPSSLSASVGDRVTISCRASQDIRNYLNWYQQKPGKAPKLLIFYTSKLHSGVPSRFSGSGSGTDYTLTISSLQPEDIATYYCQQGLTPPLTFGGGTKVEIKR
B7: DVD2786 (bispecific antibody, IgG1)
VH: B6 VH
VL: DIQMTQSPSSLSASVGDRVTITCRASQDISQYLNWYQQKPGKAPKLLIYYTSRLQSGVPSRFSGSGSGTDFTLTISSLQPEDFATYFCQQGNTWPPTFGQGTKLEIKRTVAAPSVFIFPPDIQMTQSPSSLSASVGDRVTISCRASQDIRNYLNWYQQKPGKAPKLLIFYTSKLHSGVPSRFSGSGSGTDYTLTISSLQPEDIATYYCQQGLTPPLTFGGGTKVEIKR
B8: DVD2787 (bispecific antibody, IgG1)
VH: EVQLVQSGAEVKKPGASVKVSCKASGYTFANYGIIWVRQAPGQGLEWMGWINTYTGKPTYAQKFQGRVTMTTDTSTSTAYMELSSLRSEDTAVYYCARKLFTTMDVTDNAMDYWGQGTTVTVSSASTKGPSVFPLAPEVTLRESGPGLVKPTQTLTLTCTLYGFSLSTSDMGVDWIRQPPGKGLEWLAHIWWDDVKRYNPALKSRLTISKDTSKNQVVLKLTSVDPVDTATYYCARTVSSGYIYYAMDYWGQGTLVTVSS
VL: B6 VL
B9: DVD2689 (bispecific antibody, IgG1)
VH: EVTLRESGPGLVKPTQTLTLTCTLYGFSLSTSDMGVDWIRQPPGKGLEWLAHIWWDDVKRYNPALKSRLTISKDTSKNQVVLKLTSVDPVDTATYYCARTVSSGYIYYAMDYWGQGTLVTVSSASTKGPEVQLVESGGGLVQPGGSLRLSCAASGFTFSNYGVTWVRQAPGKGLEWVSMIWADGSTHYASSVKGRFTISRDNSKNTLYLQMNSLRAEDTAVYYCAREWQHGPVAYWGQGTLVTVSS
VL: DIQMTQSPSSLSASVGDRVTISCRASQDIRNYLNWYQQKPGKAPKLLIFYTSKLHSGVPSRFSGSGSGTDYTLTISSLQPEDIATYYCQQGLTPPLTFGGGTKVEIKRTVAAPDIQMTQSPSSLSASVGDRVTITCRASQLVSSAVAWYQQKPGKAPKLLIYWASARHTGVPSRFSGSGSGTDFTLTISSLQPEDFATYYCQQHYKTPFTFGQGTKLEIKR
B10: DVD2742 (bispecific antibody, IgG1)
VH: EVTLRESGPGLVKPTQTLTLTCTLYGFSLSTSDMGVDWIRQPPGKGLEWLAHIWWDDVKRYNPALKSRLTISKDTSKNQVVLKLTSVDPVDTATYYCARTVSSGYIYYAMDYWGQGTLVTVSSASTKGPSVFPLAPEVQLVESGGGLVQPGGSLRLSCAASGFTFSNYGVEWVRQAPGKGLEWVSGIWADGSTHYADTVKSRFTISRDNSKNTLYLQMNSLRAEDTAVYYCAREWQHGPVAYWGQGTLVTVSS
VL: B9 VL with R137K, A166T, R167L, K206R
B11: DVD2739 (bispecific antibody, IgG1)
VH: B9 VH with T164E, M179G, S190D, S191T, G194S
VL: B9 VL with R137K, A166T, R167L, K206R
B12: DVD2741 (bispecific antibody, IgG1)
VH: B9 VH with T164E, M179G, S190D, S191T, G194S
VL: DIQMTQSPSSLSASVGDRVTISCRASQDIRNYLNWYQQKPGKAPKLLIFYTSKLHSGVPSRFSGSGSGTDYTLTISSLQPEDIATYYCQQGLTPPLTFGGGTKVEIKRTVAAPSVFIFPPDIQMTQSPSSLSASVGDRVTITCKASQLVSSAVAWYQQKPGKAPKLLIYWASTLHTGVPSRFSGSGSGTDFTLTISSLQPEDFATYYCQQHYRTPFTFGQGTKLEIKR
B13: DVD2692 (bispecific antibody, IgG1)
VH: B10 VH with E171T, G186M, D197S, T198S, S201G
VL: B9 VL

The binders below were run against Recombinant Human TNF-α/TNFSF1A (human, UniProt P01375 77-233) (assay: cell-based or functional assay).
Sequence of Recombinant Human TNF-α/TNFSF1A (P01375 77-233 limits assumed): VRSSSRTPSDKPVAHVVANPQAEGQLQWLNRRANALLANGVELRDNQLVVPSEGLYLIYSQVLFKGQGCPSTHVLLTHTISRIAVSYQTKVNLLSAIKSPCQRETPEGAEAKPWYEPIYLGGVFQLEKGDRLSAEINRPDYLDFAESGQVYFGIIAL

Point of comparison: B13, “C-Terminal VD huTNFα Neutralization Assay IC50” value 0.04 nM. Against it:
- B1 — 5.8-fold higher, 0.23 nM
- B3 — 4.6-fold higher, 0.186 nM
- B4 — 2.3-fold higher, 0.093 nM
- B5 — 11-fold higher, 0.452 nM
- B9 — 1.9-fold higher, 0.076 nM
- B10 — 3.2-fold higher, 0.129 nM
- B11 — 13-fold higher, 0.517 nM
- B12 — 5-fold higher, 0.202 nM

Point of comparison: B2, “N-Terminal VD huTNFα Neutralization Assay IC50” value 0.008 nM. Against it:
- B6 — within 1.5-fold, 0.006 nM
- B7 — the same, 0.008 nM
- B8 — 1.6-fold lower, 0.005 nM
